From the DeepSol protein solubility set come the findings set out here.

This data set can be described thus: soluble on expression in E. coli; label from the status in PepcDB or PDB records.
Take “MAHHHHHHSLNDIVEVEIVDLTHEGAGVAKVDGLVFFVENALPSEKILMRVLKVNKKIGFGKVEKYLVQSPHRNQDLDLAYLRSGIADLGHLSYPEQLKFKTKQVKDSLYKIAGIADVEVAETLGMEHPVKYRNKAQVPVRRVNGVLETGFFRKNSHNLMPLEDFFIQDPVIDQVVVALRDLLRRFDLKPYDEKEQSGLIRNLVVRRGHYSGQIMVVLVTTRPKVFRVDQLIEQVIKQFPEIVSVMQNINDQNTNAIFGKEWRTLYGQDYITDQMLGNDFQIAGLAFYQVNTEMAEKLYQTAIDFAELKKDDVVIDAYSGIGTIGLSVAKHVKEVYGVELIPEAVENSKKNAQLNNISNAHYVCDTAENAMKNWLKDGIQPTVILVDPPRKGLTESFIKASAQTGADRIAYISCNVATMARDIKLYQELGYELKKVQPVDLFPQTHHVETVALLSKLDVDKHISVEIELDEMDLTSAESKATYAQIKEYVWNKFELKVSTLYIAQIKKKCGIELREHYNKSKKDKQIIPQCTPEKEEAIMDALRHFKMIEG”: the “soluble on expression in E. coli” value is given as “soluble”.
Under “MAHHHHHHSLSLKGFVKVERRMADRTIKMLQSRGYFDSDYEIRHEGDYVLIPVKDGFTGPVVVKDAEKKPKVIPASGSFDIIGTIAITKKDDVEFAKEILKTHKNIKSVYLDKGVKGKERIRDLVLLAGIDSTVALYRENGCIFKIDVSKSYFSPRLATERRRLVDSILDGEFIVDMFAGSGPISIEVAKKRRVKIISIDINCAAIESLQESMRLNSLLGTITPICGDARQLIKDIHDADRIIMNHPTDAFSFLPCALEALKYGGHINYYEILNKDDVTKRLADFNFMRLKVFSYHRVHSYSKLSDLISFDLIREGEG” stands “soluble”.
Under “MAHHHHHHVDDDDKMAGDSAAYQRTSLYGDDVVIVAAHRTPLCKSKRGNFKDTYPDDLLAPVLRALIEKTNLNPSEVGDIVVGTVLAPGSQRASECRMAAFYAGFPETVAVRTVNRQCSSGLQAVADVAAAIKAGFYDIGIGAGLESMTTNPMAWEGSVNPAVKKFAQAQNCLLPMGVTSENVAQRFGVSRQEQDQAAVDSHRKAAAATAAGKFKDEIIPVKTKLVDPKTGDEKPITVSVDDGIRPTTTLASLGKLKPVFKKDGTTTAGNSSQVSDGAGAVLLMKRSVAMQKGLPVLGVFRTFAAVGVDPAIMGIGPAVAIPAAVKAAGLELDDIDLFEINEAFASQFVYCRNKLGLDPEKINVNGGAMAIGHPLGATGARCVATLLHEMKRRGKDCRFGVVSMCIGTGMGAAAVFERGDGVDELRNARKVEAQGLLSKDAR” stands “soluble”.
Under “MAHHHHHHVDDDDKMSLLDAHIPQLIASHTAFAAKAGLMRHTIGQAEQQAMSAQAFHQGESAAAFQGAHARFVAAAAKVNTLLDIAQANLGEAAGTYVAADAAAASSYTGF” stands “soluble”; under “MAHHHHHHVGTGSNDDDDKAGLVEGQNYTVLANPIPQQQAGKVEVLEFFGYFCPHCAHLEPVLSKHAKSFKDDMYLRTEHVVWQKEMLTLARLAAAVDMAAADSKDVANSHIFDAMVNQKIKLQNPEVLKKWLGEQTAFDGKKVLAAYESPESQARADKMQELTETFQIDGTPTVIVGGKYKVEFADWESGMNTIDLLADKVREEQKAAQ”, “soluble”.
On to “MAHKQSTNNETSNGSTTEIIDETDARAQLESGRTTPTLLLRLEHPRNERRVAFHAGIIDNEHLNRKKSKCCCIYKKPLAFGESSSEDDEDCEHCFGHPEKRQRNAKHNHNHGDKPCTEASHPEGPSTSTQAAHISQPPAEPVESKTDPKPPTPGVDFEQTGSSMGHHHHHHSH”, for which the “soluble on expression in E. coli” value is given as “soluble”.
For “MAHRAFIQVIITGTQVFGKAFAEAYRQAASQSVKQGATNASRRGTGKGEYGGITLDESCKILNIEESKGDLNMDKINNRFNYLFEVNDKEKGGSFYLQSKVYRAAERLKWELAQREKNAKAKAGDASTAKPPPNSTNSSGADNSASSNQ”, the “soluble on expression in E. coli” value is “not soluble”.
Under “MAHTGENVLKGLPLKAIALAIALSNPVSAQTLEQAVSITLASNPELKSAFNQFKSREYDAEASSGAYLPKIDLDAGIGYEAINPAESSGNRNTDLTRKDATLTLTQLIWDGSATLNDMDRTAAEAEADRYQLLADASNMALEVAKIYLDATKASEILTLSENNLAIHKDIYRDIKKRADSGIGSTADVTQVEARLAKAHSNLVAAQNNLFDIYTQFRRLVGQEPVSLEFPRADQNAIPPTLENALNMAQENHPVIKVAQADVDAARFQYKQSKAPNYPTLSFEAAQSWRNDAGGIEGSSDELSAMLRLRYNLYNGGSDSDRTESAAYQLNRSKDLREKTFRTVEEGLRLSWSALDLTLQQKQFLADHVDSASKTVVSYRKQYQIGQRTLLDLLNTENELFEARKDYLDARYAEQYAKYRVMNASGNLLDALRVDIPQEWTAKVEY” stands “not soluble”; under “MAHTRSLQMLKAHSTRSALRQPQKKETGTNGNDPSVAPKNAQADSGKDERRGSQAMGWSCFGGCIKDEIFSVFGIGRKIIGRV”, “not soluble”.
Under “MAHTTGENLFTMKRVLRNLEADHDALREALADGRRMRDLLPYGDYINRYRNLTRDPMVVAIHKQFHESGLGGLTIDESMFPLSLRFEDDDVTLVFRRPEGFRHGTNEESSQRPLIERRSRIVLFWKYAEPGTDALKRISLQMFDNEGPLEEATMLSEKIPLLTKPESLTTAMFIPTHADEPRFVFGS” stands “not soluble”; under “MAIDNIKAYVHLSDADIEEIGRRLDQIKAEVTQSLGARDVAYIKRLIRTQRSLEAAGRFALLFAGNKKCWWLGTGLLSTAKILENLEIGHNVLHGQWDWMNDPEIHSTTWEWDIVCPSSQWMHSHNFVHHTYTNVLGMDNDVGYGILRVTRDRKWTPLHAFQPAVNTVLAAMFQWAVGYYDVELGRYLTKRADWNDTKDKFWETTNKAGRQLARDYVFYPALARKAFPQAVKANAVANLVRSVWAYSVIFCGHFPDEAETFTKEQFKNEDHNQWYLRQMLGSANFYGGKLLTIMSGNLNYQIEHHLFPDMPSNRLAEVGEKVRALCDEYDLPYNVDSFPAQLFKVQKTLLKLTLPNKYLVASPDNAPEVRSNRAFSQNPELEHHHHHH”, “soluble”; under “MAIFSRTKRVTDPLDDDAKARILSSHSYILDQDSPRLCELVHGFLEDGPEESFYDSDPDLSETSSAEHSGEASVEIVRMAVSFSDSDPYRNLLLAHVLRAVEVYSGFRSRNKTVFRDKVASFLRELGHDAAVCVSKWTSSSKLIAGSYHFIDVVHKPSDNDQKAVRYLVDLDFASEFEIARPTREYTRGLQLLPNVFVGNEENLRTIVRESCDAAKRSMKSRGLSLPPWRRSSYLQHKWFGPYKRKVGSSLGVKPLNSDAVSCRSLGFDDGAVNTRLFIRA”, “soluble”.
On to “MAIGGWIKLYRTIQDHWIWENPQYLKWWLDLIFMANHQDRKILFDGELKTVKVGERITSEKKLSERWEVSRNTVRKFLDLLVKDDMIELSRSRQNGTWYKVSNYAEYQNFSEIKKQRTEQRREQQAAHQTEQRTEHKQEPKEPKNLRNNNNNNKGAFIRSIWENNGFGLMSSKTMTDFDYWISDFEKIGASQKEAEQLIVKAIEIAIDANARNYNYINAILKDWEQRGFKSVEEREAARKQKKTTKKQKSNTGHSDYDDLGF”, for which the “soluble on expression in E. coli” value is “not soluble”.
Under “MAIIASTFGTGLSYAGELPFKPVTGGEVGRKQQRMVVVRAEGGGGINPEIRKNEDKVVDSVVVTELSKNITPYCRCWRSGTFPLCDGSHVKHNKANGDNVGPLLLKKQ” stands “soluble”; under “MAIKFQYNKTSLQQQEKQLKMRERTLPTIKSKESALRLEVKRTKDEVERLERQLEEEIVGYRSMVSLWNEFKPDLISVEGVKLSAKKVAGVVVPVLDDISYTIKPFSLFNAPSWFAEGIDLLKNLAHTGIEAEFLGLKLEFLEYARKKTTQKVNLFEKVQIPGYKDAIRKIKRYLEDEESLSKSSQKIMRANMEKRNKGEEVMA”, “not soluble”.
Regarding “MAIRVIGTGFGRTGTDSMREALTILGFGPCHHMSEVMGNEDQKRLWRALAKGAAPDWNQLFAGYASCIDWPSAHYWRDLIEFYPKARVILTYRSPESWWASFEKTILAGISQSTDQESLGLALISRQVFDGRPHDRANAIAVYEANVRAVIATVPPSRLLVHNLGDGWKPLCLHLDVPLEHHHHHH”, the “soluble on expression in E. coli” value is “not soluble”.
Under “MAISLQKGQRISLSKEAPGLSKMMCGLGWDVAKRSGGGFFSNFGGGGQNYDLDASVICLDANGKLTAKENIIYFGNLQHLSGAITHTGDNLTGAGDGDDEVIIVDLPRIPAQIVKLVFVVNIYDCIARKQDFSQIENAFVRLVNAANNKELARYNLSGKEYLGMTGMVLAEVYRHNDDWKLAAIGNGVNVNGLGELAGSYS” stands “not soluble”; under “MAISVFDLFSIGIGPSSSHTVGPMRAARMFARRLRNEELLDSVASVRVELYGSLGATGHGHGTPKAVLLGLEGDSPRTVDVESADDRVETIKSSGRISLLGDHEIAFAYDDDMVLHRRKALPYHANGMTLWAYDAEGAEVLTKTYYSVGGGFVVDEDAVGADRIVLDDTVLKYPFRTGDELLRLARETGLSISALMLENERAWRDEDEIREGLLEIWRVMRACVDRGMTREGILPGGLKVRRRAANTARKLRSEGDPQALAMEWITLYAMAVNEENAAGGRVVTAPTNGAAGIIPAVLHYYMNFVPGADEDGVVRFLLAAGAIGMLFKENASISGAEVGCQGEVGSACSMAAGALAEVLGGSPEQVENAAEIGMEHNLGLTCDPVGGLVQIPCIERNGMAAVKAVTAARMAMRGDGSHKVSLDKVIKTMKETGADMSVKYKETARGGLAVNIIEC”, “not soluble”.
Consider “MAIYADNSYSIGNTPLVRLKHFGHNGNVVVKIEGRNPSYSVKCRIGANMVWQAEKDGTLTKGKEIVDATSGNTGIALAYVAAARGYKITLTMPETMSLERKRLLCGLGVNLVLTEGAKGMKGAIAKAEEIVASDPSRYVMLKQFENPANPQIHRETTGPEIWKDTDGKVDVVVAGVGTGGSITGISRAIKLDFGKQITSVAVEPVESPVISQTLAGEEVKPGPHKIQGIGAGFIPKNLDLSIIDRVETVDSDTALATARRLMAEEGILAGISSGAAVAAADRLAKLPEFADKLIVVILPSASERYLSTALFEGIEG”, for which the “soluble on expression in E. coli” value is “soluble”.
Under “MAKDIEISASESKFILEALRQNYRLDGRSFDQFRDVEITFGKEFGDVSVKMGNTKVHCRISCQIAQPYEDRPFEGLFVISTEISPMAGSQFENGNITGEDEVLCSRIIEKSVRRSGALDVEGLCIVAGSKCWAVRADVHFLDCDGGFIDASCIAVMAGLMHFKKPDITVHGEQIIVHPVNEREPVPLGILHIPICVTFSFFNPQDTEENIKGETNSEISIIDATLKEELLRDGVLTVTLNKNREVVQVSKAGGLPMDALTLMKCCHEAYSIIEKITDQILQLLKEDSEKRNKYAAMLTSENAREI” stands “soluble”.
Take “MAKEFLIELGTEELPPTQLRTLAEAFAANFEAELKGAELAHEGVKWFAAPRRLALKVAALAESQSDKVVEKRGPAVSAAFDAEGNPTKAAQGWARGCGITVDQADRMVTDKGEWLLFKQEVKGQPTSEIVVELAAKALANLPIAKPMRWGNKTTQFIRPVKTLTMLMGSDLIEGEILGVASSRTIRGHRFMGEKEFTIDSAEQYPAILEERGKVMADYEARKAIILADAQKAAAAVGGIADLEDDLVEEVTSLVEWPVVLTAKFEEEFLKVPSEALVYTMKGDQKYFPVYDENKKLLPNFIFVSNIESKEPRYVIEGNEKVVRPRLADAEFFFNTDRKRPLIDRLPELEQAIFQQQLGTIKDKTDRITELAGYIAEQIGADVEKSKRAGLLAKCDLMTSMVFEFTDTQGVMGMHYARHDGEAEEVAVALNEQYMPRFAGDELPSNGVSTAVAMADKLDTIVGIFGIGQAPKGSDPFALRRASLGVLRIIVEYGYNLDLVDLVAKAKSLFGDRLTNDNVEQDVIEFMLGRFRAWYQDEGFSVDIIQAVLARRPTK”: the “soluble on expression in E. coli” value is “not soluble”.
